The values below come from patent publication US20240287204A1 (published 2024).

This test deals with T1, human MerTK on cells (human, UniProt Q12866 21-999).
T1 sequence: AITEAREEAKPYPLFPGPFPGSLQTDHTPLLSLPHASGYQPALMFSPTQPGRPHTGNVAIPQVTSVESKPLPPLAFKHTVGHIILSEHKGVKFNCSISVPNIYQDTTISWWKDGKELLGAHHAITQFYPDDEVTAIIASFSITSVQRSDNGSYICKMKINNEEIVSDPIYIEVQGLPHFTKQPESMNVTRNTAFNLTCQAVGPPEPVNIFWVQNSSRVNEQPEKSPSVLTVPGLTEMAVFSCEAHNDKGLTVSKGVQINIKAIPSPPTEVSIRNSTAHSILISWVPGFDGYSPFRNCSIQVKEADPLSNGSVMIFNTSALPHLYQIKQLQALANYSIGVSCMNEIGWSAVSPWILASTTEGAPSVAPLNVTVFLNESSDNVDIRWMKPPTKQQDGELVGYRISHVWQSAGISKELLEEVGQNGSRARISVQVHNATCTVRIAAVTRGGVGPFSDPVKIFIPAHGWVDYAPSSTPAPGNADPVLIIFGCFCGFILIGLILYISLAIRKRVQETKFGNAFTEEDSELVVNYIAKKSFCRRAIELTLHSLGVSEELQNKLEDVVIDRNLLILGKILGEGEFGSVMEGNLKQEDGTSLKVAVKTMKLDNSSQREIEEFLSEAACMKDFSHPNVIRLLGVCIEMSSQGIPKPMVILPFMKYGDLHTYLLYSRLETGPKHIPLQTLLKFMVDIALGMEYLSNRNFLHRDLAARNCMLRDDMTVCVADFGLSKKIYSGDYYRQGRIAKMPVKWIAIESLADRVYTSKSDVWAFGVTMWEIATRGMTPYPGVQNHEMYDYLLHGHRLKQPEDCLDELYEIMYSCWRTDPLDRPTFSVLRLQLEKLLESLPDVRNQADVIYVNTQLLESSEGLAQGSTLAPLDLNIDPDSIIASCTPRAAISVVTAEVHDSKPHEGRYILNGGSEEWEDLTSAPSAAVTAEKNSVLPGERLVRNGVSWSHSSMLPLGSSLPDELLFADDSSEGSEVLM
Description: cell-based or functional assay.

B1: MTK-22 (antibody, human IgG1, V domains shown)
VH: QVQLQQPGADLVEPGASVKLSCKASGYTFTSYWMHWVKQRPGQGLEWIGEIDPSDSSSNYNQKFKGKATLTVDKSSSTAYMHLNSLTSEDSAVYYCARRYYYGSLYFDNWGQGTTLTVSS
VL: DVVMTQSHKFMSTSVGDRVSITCKASQDVGTAIAWYQQKPGQSPKLLIYWASTRHTGVPDRFTGSRSGTVFTLTISNVQSEDLADYFCQQYTSYPLTFGSGTKLEIK
Take B1: the “IC50 of blocking of Gas6-mediated pAKT activity in human M2c macrophages (HTRF)” value is 0.531 nM.
